Source: patent US20220235356

molecular target: KRAS G12D (GMPPNP-loaded) G12D (Homo sapiens) (UniProt P01116); test: inhibition; conditions: Raf-1 binding remaining vs no aptamer, average of four aptamers at 5x KRAS; PBS, 37 C, ELISA

Row | Sequence | activity [%]
1 | NCATANNNNNCGGTACGTCCGNNTATGNGTGGGNGGTAAGGGAGACCNCNTGACTAGTACANNNCCACN [NBK2-1] | 50
2 | NNNNNNNNGATCATGNNCCGGGTTCGGNTGGGGGGNNNNNNCATGATCTACTTGACTAGTNNN [NBK1-1] | 50
3 | NNNNNNNNNNNNGGNCATNNGATCATGNNCCGGGTTCGGNTGGGGGGNNNNNNCATGATCTACTTGACTAGTANATGNCCNNNNNN [NBK1] | 50
4 | NNNNNNNNNNNNNNNCATANNNNNCGGTACGTCCGNNTATGNGTGGGNGGTAAGGGAGACCNCNTGACTAGTACANNNCCACNNNN [NBK2] | 50
